Key:
[1] = molecular target: HIV-1 gp41 protein (surface plasmon resonance) (HIV-1); assay: SPR; BIAcore 3000; HIV-1 proteins amine coupled to CM-5 chips (50 µg/mL in 20 mM sodium acetate); serially diluted antibody injected at 30 µL/minute for about 100 s in HBS (10 mM HEPES, 150 mM NaCl, 3 mM EDTA)
[2] = molecular target: HIV-1 gp120 protein (surface plasmon resonance) (HIV-1); assay: as above

| Kd [1] [nM] | Kd [2] [nM] | Substance |
| --- | --- | --- |
| 6.12 |  | trispecific antibody iMab + PRO140 + 10E8 |
|  | 0.46 | trispecific antibody iMab + PRO140 + PGDM1400 |
|  | 0.59 | trispecific antibody iMab + PRO140 + PGT121 |

Source: article PMC10819093
